Where “and” joins values, the source holds several entries; their conditions need not be identical. Equal values may be shown once.

The source of these data is paper PMC5298014, “Site‐Specific Immobilization of the Peptidoglycan Synthase PBP1B on a Surface Plasmon Resonance Chip Surface” (Chembiochem, 2016).

This experiment concerns the target T1, LpoB(sol) (signal sequence and lipid anchor of LpoB replaced by an oligohistidine tag).
T1 construct: also called His-LpoB(sol); source: E. coli BL21(DE3) with pET28LpoB, purified (HisTrap, thrombin, HiTrap Q flow-through, Superdex 200)
The experiment can be described thus: SPR; IBIS-MX96; PBP1B Gly55AzF immobilised through its azide on a SensEye P-NH2 sensor coated with sulfo-dibenzylcyclooctyne-NHS ester, blocked with azidoethanol; LpoB injected at different concentrations; running buffer 10 mM Tris/maleate pH 7.5, 150 mM NaCl, 0.05 % Triton X-100; KD from maximum RU against concentration, one-site saturation. The conditions noted are these: both partners purified. In general terms: SPR reads the build-up and loss of mass on a sensor chip optically.

B1: PBP1B Gly55AzF (N-terminal His6-tagged PBP1Bγ with p-azidophenylalanine in place of Gly55) (enzyme)
chain: MPRKGKGKGKFRKPRGKRGWLWLLLKLAIVFAVLIAIYGVYLDQKIRSRIDGKVWQLPAAVYGRMVNLEPDMTISKNEMVKLLEATQYRQVSKMTRPGEFTVQANSIEMIRRPFDFPDSKEGQVRARLTFDGDHLATIVNMENNRQFGFFRLDPRLITMISSPNGEQRLFVPRSGFPDLLVDTLLATEDRHFYEHDGISLYSIGRAVLANLTAGRTVQGASTLTQQLVKNLFLSSERSYWRKANEAYMALIMDARYSKDRILELYMNEVYLGQSGDNEIRGFPLASLYYFGRPVEELSLDQQALLVGMVKGASIYNPWRNPKLALERRNLVLRLLQQQQIIDQELYDMLSARPLGVQPRGGVISPQPAFMQLVRQELQAKLGDKVKDLSGVKIFTTFDSVAQDAAEKAAVEGIPALKKQRKLSDLETAIVVVDRFSGEVRAMVGGSEPQFAGYNRAMQARRSIGSLAKPATYLTALSQPKIYRLNTWIADAPIALRQPNGQVWSPQNDDRRYSESGRVMLVDALTRSMNVPTVNLGMALGLPAVTETWIKLGVPKDQLHPVPAMLLGALNLTPIEVAQAFQTIASGGNRAPLSALRSVIAEDGKVLYQSFPQAERAVPAQAAYLTLWTMQQVVQRGTGRQLGAKYPNLHLAGKTGTTNNNVDTWFAGIDGSTVTITWVGRDNNQPTKLYGASGAMSIYQRYLANQTPTPLNLVPPEDIADMGVDYDGNFVCSGGMRILPVWTSDPQSLCQQSEMQQQPSGNPFDQSSQPQQQPQQQPAQQEQKDSDGVAGWIKDMFGSN
modifications: p-azidophenylalanine in place of Gly55; coupled through this azide to dibenzylcyclooctyne on the chip surface
As to B1, the Kd (as a rule, the equilibrium constant for the complex coming apart) was 710 to 970 nM and 840 nM.
